These results are taken from US20190359662A1.

Among the targets are hNav1.1 (human) (UniProt P35498); hNav1.9 (human) (UniProt Q9UI33); hNav1.4 (human) (UniProt P35499); hNav1.3 (human) (UniProt Q9NY46); hNav1.6 (human) (UniProt Q9UQD0); hNav1.5 (human) (UniProt Q14524); hNav1.8 (human) (UniProt Q9Y5Y9); hNav1.7 (human) (UniProt Q15858); hNav1.2 (human) (UniProt Q99250).
Assay in all cases: cell-based or functional assay

hNav1.8 (human), sequence (Q9Y5Y9 whole entry): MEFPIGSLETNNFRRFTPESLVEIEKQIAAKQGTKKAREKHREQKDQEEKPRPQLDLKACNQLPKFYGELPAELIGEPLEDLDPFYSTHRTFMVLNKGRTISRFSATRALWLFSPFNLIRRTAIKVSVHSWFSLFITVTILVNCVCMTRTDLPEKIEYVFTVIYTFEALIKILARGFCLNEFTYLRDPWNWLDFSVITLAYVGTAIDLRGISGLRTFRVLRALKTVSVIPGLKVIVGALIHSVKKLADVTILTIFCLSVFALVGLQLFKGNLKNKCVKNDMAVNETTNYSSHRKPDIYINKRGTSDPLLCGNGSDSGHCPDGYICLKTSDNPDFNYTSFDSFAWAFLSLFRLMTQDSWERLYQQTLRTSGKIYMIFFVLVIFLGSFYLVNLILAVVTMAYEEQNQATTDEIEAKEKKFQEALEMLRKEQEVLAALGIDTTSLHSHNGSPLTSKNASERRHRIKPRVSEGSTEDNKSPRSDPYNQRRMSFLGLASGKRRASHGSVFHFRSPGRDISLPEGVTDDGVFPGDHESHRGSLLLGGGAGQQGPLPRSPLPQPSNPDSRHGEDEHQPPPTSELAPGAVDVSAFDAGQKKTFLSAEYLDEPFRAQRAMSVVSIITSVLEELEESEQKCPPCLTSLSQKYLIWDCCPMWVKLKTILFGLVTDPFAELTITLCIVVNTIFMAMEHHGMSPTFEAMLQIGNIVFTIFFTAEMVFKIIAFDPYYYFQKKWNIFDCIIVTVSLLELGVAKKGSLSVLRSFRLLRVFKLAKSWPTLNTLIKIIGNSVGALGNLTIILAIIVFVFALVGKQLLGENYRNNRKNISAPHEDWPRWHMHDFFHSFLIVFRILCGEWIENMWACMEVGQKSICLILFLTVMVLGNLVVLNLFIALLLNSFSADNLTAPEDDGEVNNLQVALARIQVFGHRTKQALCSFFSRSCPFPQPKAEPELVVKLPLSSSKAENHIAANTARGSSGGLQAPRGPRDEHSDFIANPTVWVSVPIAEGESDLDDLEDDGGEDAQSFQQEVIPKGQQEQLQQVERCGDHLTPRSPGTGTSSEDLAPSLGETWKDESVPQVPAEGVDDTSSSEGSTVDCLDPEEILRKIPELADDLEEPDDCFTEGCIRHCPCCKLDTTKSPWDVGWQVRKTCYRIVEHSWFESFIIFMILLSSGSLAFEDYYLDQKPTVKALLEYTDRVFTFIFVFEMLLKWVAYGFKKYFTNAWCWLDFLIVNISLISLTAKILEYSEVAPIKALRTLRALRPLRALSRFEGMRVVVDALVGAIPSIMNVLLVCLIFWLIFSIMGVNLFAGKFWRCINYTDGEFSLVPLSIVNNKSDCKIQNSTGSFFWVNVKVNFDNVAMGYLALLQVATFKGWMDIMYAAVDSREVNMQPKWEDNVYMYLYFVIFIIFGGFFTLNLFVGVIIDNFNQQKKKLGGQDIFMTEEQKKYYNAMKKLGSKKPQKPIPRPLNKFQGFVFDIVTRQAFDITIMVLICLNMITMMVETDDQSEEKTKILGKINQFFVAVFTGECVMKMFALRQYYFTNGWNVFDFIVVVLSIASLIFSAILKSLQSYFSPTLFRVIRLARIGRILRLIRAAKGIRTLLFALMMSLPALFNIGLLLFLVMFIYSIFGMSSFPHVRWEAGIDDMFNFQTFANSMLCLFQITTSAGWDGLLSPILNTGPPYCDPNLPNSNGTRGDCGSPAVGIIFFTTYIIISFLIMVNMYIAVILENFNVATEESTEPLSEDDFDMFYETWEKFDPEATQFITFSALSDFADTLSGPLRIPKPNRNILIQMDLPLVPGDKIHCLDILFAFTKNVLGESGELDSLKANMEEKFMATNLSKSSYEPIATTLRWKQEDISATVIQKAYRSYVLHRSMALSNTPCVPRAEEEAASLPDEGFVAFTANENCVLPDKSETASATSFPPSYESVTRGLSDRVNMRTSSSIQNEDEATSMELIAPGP
hNav1.6 (human), sequence (Q9UQD0 whole entry): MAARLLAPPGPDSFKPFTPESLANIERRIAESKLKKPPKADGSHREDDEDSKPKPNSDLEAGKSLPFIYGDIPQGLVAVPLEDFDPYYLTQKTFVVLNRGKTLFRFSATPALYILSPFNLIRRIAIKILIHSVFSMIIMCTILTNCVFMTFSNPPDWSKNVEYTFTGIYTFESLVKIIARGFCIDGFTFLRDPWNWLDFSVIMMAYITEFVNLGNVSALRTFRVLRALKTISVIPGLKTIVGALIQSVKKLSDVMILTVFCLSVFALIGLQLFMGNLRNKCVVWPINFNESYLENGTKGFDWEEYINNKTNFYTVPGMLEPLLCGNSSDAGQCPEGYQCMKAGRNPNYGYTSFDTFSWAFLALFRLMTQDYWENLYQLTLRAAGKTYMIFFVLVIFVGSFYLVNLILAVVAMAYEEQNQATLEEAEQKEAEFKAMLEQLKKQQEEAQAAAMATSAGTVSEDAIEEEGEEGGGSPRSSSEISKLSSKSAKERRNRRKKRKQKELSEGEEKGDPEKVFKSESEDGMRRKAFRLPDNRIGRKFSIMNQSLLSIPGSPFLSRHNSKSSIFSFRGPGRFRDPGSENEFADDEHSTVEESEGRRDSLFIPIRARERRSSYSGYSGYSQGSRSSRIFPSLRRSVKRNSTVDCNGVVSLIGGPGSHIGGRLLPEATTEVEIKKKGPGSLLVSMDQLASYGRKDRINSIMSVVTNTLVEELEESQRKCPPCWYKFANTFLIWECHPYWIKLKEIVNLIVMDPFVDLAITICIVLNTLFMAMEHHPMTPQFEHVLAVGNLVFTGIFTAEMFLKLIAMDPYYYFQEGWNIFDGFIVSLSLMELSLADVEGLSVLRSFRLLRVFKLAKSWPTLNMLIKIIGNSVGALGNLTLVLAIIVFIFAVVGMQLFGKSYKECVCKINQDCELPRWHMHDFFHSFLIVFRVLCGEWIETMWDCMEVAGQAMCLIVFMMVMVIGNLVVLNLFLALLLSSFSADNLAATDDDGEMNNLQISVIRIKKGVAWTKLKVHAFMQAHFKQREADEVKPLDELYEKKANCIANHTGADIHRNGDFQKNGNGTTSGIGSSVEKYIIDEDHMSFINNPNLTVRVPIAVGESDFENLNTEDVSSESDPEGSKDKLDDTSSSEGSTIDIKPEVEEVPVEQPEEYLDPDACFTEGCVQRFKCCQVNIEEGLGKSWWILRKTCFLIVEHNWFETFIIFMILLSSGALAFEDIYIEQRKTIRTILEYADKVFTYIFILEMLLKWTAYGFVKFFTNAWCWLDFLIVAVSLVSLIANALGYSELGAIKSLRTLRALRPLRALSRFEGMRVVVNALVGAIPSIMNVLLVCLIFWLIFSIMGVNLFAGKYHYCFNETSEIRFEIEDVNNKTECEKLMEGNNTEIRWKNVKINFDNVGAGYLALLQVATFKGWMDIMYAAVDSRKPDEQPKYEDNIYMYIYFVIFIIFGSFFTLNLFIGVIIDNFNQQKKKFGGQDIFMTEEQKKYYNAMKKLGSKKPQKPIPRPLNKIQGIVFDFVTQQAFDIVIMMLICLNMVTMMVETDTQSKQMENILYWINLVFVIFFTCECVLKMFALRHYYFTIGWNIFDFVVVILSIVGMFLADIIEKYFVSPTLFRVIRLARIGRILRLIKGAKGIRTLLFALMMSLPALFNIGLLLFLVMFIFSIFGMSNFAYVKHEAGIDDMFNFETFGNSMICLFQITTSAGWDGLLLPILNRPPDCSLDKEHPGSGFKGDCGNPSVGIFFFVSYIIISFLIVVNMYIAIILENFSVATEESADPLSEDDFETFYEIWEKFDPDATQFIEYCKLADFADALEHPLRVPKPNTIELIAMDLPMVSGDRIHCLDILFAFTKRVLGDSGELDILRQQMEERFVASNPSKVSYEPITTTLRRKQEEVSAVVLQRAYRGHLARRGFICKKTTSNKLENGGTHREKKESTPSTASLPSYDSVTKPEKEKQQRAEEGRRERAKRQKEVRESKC

As to Pnc1a (peptide), the pIC50, automated patch clamp came to 7.43 M with hNav1.1 (human); 5.63 M with hNav1.9 (human); 6.8 M with hNav1.4 (human); 6.68 M in the test with hNav1.3 (human); 6.89 M in the test with hNav1.6 (human); 6.01 M with hNav1.5 (human). In addition, the pIC50, automated patch clamp with hNav1.8 (human) was 4.32 M; in the test with hNav1.7 (human), > 9.04 M; in the test with hNav1.2 (human) it was 6.9 M. In addition, the pIC50, membrane potential assay in the test with hNav1.1 (human) came to 4.88 M; with hNav1.4 (human), 4.95 M; in the test with hNav1.3 (human), 5.09 M; in the test with hNav1.6 (human) it was 4.73 M; with hNav1.5 (human), 4.07 M; with hNav1.8 (human) it was 4.58 M. In the test with hNav1.2 (human), this substance gave a pIC50, membrane potential assay of 5.53 M.
